Results as given in patent US20170268065.

Target: T1, ELK-1 fusion protein (Cell Signaling), P19419
T1 chain: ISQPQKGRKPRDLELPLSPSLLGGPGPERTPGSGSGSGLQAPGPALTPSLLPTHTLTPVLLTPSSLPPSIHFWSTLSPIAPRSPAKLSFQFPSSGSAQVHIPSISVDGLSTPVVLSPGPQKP

B1: V5-tagged ERK1^Y148H (protein)
chain: MAAAAAQGGGGGEPRRTEGVGPGVPGEVEMVKGQPFDVGPRYTQLQYIGEGAYGMVSSAYDHVRKTRVAIKKISPFEHQTYCQRTLREIQILLRFRHENVIGIRDILRASTLEAMRDVYIVQDLMETDLYKLLKSQQLSNDHICYFLHQILRGLKYIHSANVLHRDLKPSNLLINTTCDLKICDFGLARIADPEHDHTGFLTEYVATRWYRAPEIMLNSKGYTKSIDIWSVGCILAEMLSNRPIFPGKHYLDQLNHILGILGSPSQEDLNCIINMKARNYLQSLPSKTKVAWAKLFPKSDSKALDLLDRMLTFNPNKRITVEEALAHPYLEQYYDPTDEPVAEEPFTFAMELDDLPKERLKELIFQETARFQPGVLEAP
ERK kinase activity (ELK-1 peptide phosphorylation, IP kinase assay after trametinib exposure): diminished residual kinase activity in the setting of trametinib exposure with the common docking domain mutants compared to other alleles
